Source: patent US20220340905, “NUCLEIC ACID APTAMER SPECIFICALLY RECOGNIZING B-LACTOGLOBULIN AND USE THEREOF” (JIANGNAN UNIVERSITY, published 2022)

Experiments:
[1] = target: T1, beta-lactoglobulin (UniProt P02754 P02754:17-178); experiment: magnetic bead strand-displacement fluorescence assay, 37 C; conditions: label: 5'-FAM (fluorescence assay)
T1 sequence: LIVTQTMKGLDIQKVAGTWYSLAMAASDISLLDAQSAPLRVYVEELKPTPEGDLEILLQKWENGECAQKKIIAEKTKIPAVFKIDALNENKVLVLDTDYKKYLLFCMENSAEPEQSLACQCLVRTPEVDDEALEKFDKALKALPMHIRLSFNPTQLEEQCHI
Experimental: (§1) Various concentrations (10 nM, 25 nM, 50 nM, 75 nM, 100 nM, 150 nM, 200 nM, and 300 nM) of the aptamer were respectively mixed with the biotinylated complementary short chain at a molar ratio of 1:1.5, denatured at 95° C. for 10 min, and slowly cooled to 37° C. for 3 h until the two were fully hybridized. The mixture was reacted with a certain amount of streptavidin-coupled magnetic beads (where the weight ratio of the aptamer to the magnetic beads was 1:400) at 37° C. and 200 rpm for 2 h to immobilize the aptamer on the magnetic beads by the strong binding between the biotin and streptavidin. The immobilized magnetic beads were incubated with 50 μg/mL β-lactoglobulin in a 300 μL system at 37° C. and 200 rpm. After magnetic separation, the supernatant was subjected to fluorescence measurement at an excitation wavelength of 485 nm and an emission wavelength of 522 nm. The relative fluorescence intensity at various aptamer concentrations was nonlinearly fitted by GraphPad prism 5.0 software, and the dissociation constant Kd of the aptamer was calculated (see Table 1). […] The homologous sequences (Lg-9 and Lg-16) of the aptamer Lg-18 also have good ability of binding to β-lactoglobulin.

[2] = target: T1, beta-lactoglobulin; experiment: magnetic bead strand-displacement fluorescence assay, 37 C; aptamer hybridised to biotinylated short chain, released by 50 ug/mL protein; ITC in 10 mM Tris-HCl; conditions: label: 5'-FAM (fluorescence assay); stem-loop (Mfold predicted)
Experimental: as §1

[3] = target: BSA (bovine serum albumin) (Bos taurus, UniProt P02769 P02769:25-607); experiment: specificity control, 50 ug/mL protein, 200 nM aptamer on magnetic beads; text states good specificity, values only in figure; conditions: label: 5'-FAM (fluorescence assay); stem-loop (Mfold predicted)
Experimental: (§2) Various concentrations (10 nM, 25 nM, 50 nM, 75 nM, 100 nM, 150 nM, 200 nM, and 300 nM) of the aptamer were respectively mixed with the biotinylated complementary short chain at a molar ratio of 1:1.5, denatured at 95° C. for 10 min, and slowly cooled to 37° C. for 3 h until the two were fully hybridized. The mixture was reacted with a certain amount of streptavidin-coupled magnetic beads (where the weight ratio of the aptamer to the magnetic beads was 1:400) at 37° C. and 200 rpm for 2 h to immobilize the aptamer on the magnetic beads by the strong binding between the biotin and streptavidin. The immobilized magnetic beads were incubated with 50 μg/mL β-lactoglobulin in a 300 μL system at 37° C. and 200 rpm. After magnetic separation, the supernatant was subjected to fluorescence measurement at an excitation wavelength of 485 nm and an emission wavelength of 522 nm. The relative fluorescence intensity at various aptamer concentrations was nonlinearly fitted by GraphPad prism 5.0 software, and the dissociation constant Kd of the aptamer was calculated (see Table 1). […]
(§3) The specificity of the aptamer (Lg-18) was evaluated by the same method. […] After magnetic separation, the fluorescence intensity of the supernatant was measured respectively, and then the specificity of the aptamer was evaluated.

[4] = target: T2, alpha-lactalbumin (UniProt P00711 P00711:20-142); experiment: as above; conditions: label: 5'-FAM (fluorescence assay); stem-loop (Mfold predicted)
T2 sequence: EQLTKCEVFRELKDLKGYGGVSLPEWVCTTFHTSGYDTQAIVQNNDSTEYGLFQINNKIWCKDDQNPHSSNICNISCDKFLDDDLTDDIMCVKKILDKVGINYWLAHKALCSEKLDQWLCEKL
Experimental: as §2, §3

Sequence of BSA (bovine serum albumin) (P02769 25-607, one chain of several): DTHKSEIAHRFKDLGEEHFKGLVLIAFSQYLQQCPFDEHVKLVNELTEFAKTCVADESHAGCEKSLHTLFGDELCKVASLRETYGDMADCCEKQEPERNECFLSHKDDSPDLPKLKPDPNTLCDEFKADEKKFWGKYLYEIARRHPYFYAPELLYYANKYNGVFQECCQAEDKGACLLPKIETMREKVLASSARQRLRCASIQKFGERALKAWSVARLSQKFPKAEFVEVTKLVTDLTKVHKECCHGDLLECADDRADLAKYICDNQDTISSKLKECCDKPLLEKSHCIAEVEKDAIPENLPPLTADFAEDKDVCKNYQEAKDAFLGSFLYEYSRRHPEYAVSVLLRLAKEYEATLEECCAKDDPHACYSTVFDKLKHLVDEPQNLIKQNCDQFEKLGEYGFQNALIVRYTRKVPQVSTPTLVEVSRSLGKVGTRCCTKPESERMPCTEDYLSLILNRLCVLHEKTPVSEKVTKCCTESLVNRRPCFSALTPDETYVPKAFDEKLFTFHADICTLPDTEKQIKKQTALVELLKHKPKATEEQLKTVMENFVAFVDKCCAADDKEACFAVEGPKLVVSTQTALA

B1: Lg-16 (ssDNA)
DNA: AGCAGCACAGAGGTCAGATGTCGTTTGTGGCTGTCAATTGGTGTGTTTACCTGTTTTGGCCTATGCGTGCTACCGTGAA
- Kd [1]: 65.8 nM

B2: Lg-18 (ssDNA)
DNA: AGCAGCACAGAGGTCAGATGTTCGGCCTTTGCGTTAACGAACTTCTAGCTATGCGGCGTACCTATGCGTGCTACCGTGAA
- Kd [2]: 65 nM
- binding result [3]: no binding
- binding result [4]: no binding

B3: Lg-9 (ssDNA)
DNA: AGCAGCACAGAGGTCAGATGGTTTTGTTGGGTCTGCTACGGACTTTGTTGACCTTTGCTCCCTATGCGTGCTACCGTGAA
- Kd [1]: 71.8 nM
